Results on 9 molecules are retold here after patent US7754689B2, “Finger-1 peptide analogs of the TGF-β superfamily” (Wyeth LLC, priority 2006, dated 2010).

Assay [1] concerns the target T1, BMP-12 (Homo sapiens, UniProt Q7Z4P5).
T1 sequence (Q7Z4P5 322-450): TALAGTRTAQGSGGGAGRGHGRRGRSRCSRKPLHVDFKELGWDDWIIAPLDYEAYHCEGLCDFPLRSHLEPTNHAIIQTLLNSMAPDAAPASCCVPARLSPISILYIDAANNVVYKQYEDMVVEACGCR
Briefly: Filter-plate binding and elution of BMP-12 on peptide-coupled affinity resins. The procedure:
The coupled resins, plus an unconjugated resin for use as a control, were suspended in 16% ethanol, 150 mM NaCl, and 20 mM Tris buffer at pH 7.5 at a 25% v/v ratio (e.g., […]). A Tecan liquid-handling robot was employed to aliquot 200 μL of each slurry into one of eight rows of a 96 well polystyrene filter plate (0.45 μm hydrophilic filters, Whatman catalog number 770-1806). Spinning at 1200 g for 3 min removed the liquid phase, leaving 50 μL of wet resin on the filters. The resins were then equilibrated with the loading buffers listed in Table 6 (K is a coefficient characterizing the strength of protein binding to a particular resin in a particular buffer). […] The resins were loaded by transferring 150 μL from the load plate to the filter plate and then incubating 20 min on a shaking platform to facilitate binding. The filter plate was spun down and the filtrate collected in a 96 well UV plate. The protein concentration in the filtrate, or flow-through, was calculated as (A280-A320)/1.3. The filter plate was then washed with 150 μL of 100 mM acetic acid, followed by 150 μL of 4M guanidine-HCl and 50 mM sodium acetate at pH 4.0. The protein concentration was measured in the new filtrate as described above. […] However, for peptides 750 and 751, the binding was strong in 25 mM MES at pH 6 but weak in 50 mM acetic acid with 0.1 M NaCl at pH 3.0, which can allow an efficient binding-elution process without the need for chaotrops or organic reagents. Flow-through and acetic acid elution samples from column 4 of the plate (loaded with MES pH 6) were analyzed on a gel (FIG. 14).

In assay [2] the target is T2, BMP-12 (UniProt Q7Z4P5 322-450, limits assumed).
T2 construct: also called BMP12/GDF7
T2 sequence (looked up): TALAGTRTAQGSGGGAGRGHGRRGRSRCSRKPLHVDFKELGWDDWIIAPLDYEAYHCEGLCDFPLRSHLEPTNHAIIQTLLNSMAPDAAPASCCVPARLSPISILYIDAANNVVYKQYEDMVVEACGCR
Briefly: peptide resin, filter plate; load 12: 50 mM Tris, 0.1 M NaCl, 20% MPD, pH 8.0. The procedure:
(§1) The coupled resins, plus an unconjugated resin for use as a control, were suspended in 16% ethanol, 150 mM NaCl, and 20 mM Tris buffer at pH 7.5 at a 25% v/v ratio (e.g., 25% ethanol, 75% Tris buffer). A Tecan liquid-handling robot was employed to aliquot 200 μL of each slurry into one of eight rows of a 96 well polystyrene filter plate (0.45 μm hydrophilic filters, Whatman catalog number 770-1806). Spinning at 1200 g for 3 min removed the liquid phase, leaving 50 μL of wet resin on the filters. The resins were then equilibrated with the loading buffers listed in Table 6 (K is a coefficient characterizing the strength of protein binding to a particular resin in a particular buffer). […] The resins were loaded by transferring 150 μL from the load plate to the filter plate and then incubating 20 min on a shaking platform to facilitate binding. The filter plate was spun down and the filtrate collected in a 96 well UV plate. The protein concentration in the filtrate, or flow-through, was calculated as $(A280-A320)/1.3$. The filter plate was then washed with 150 μL of 100 mM acetic acid, followed by 150 μL of 4M guanidine-HCl and 50 mM sodium acetate at pH 4.0. The protein concentration was measured in the new filtrate as described above. […] Flow-through and acetic acid elution samples from column 4 of the plate (loaded with MES pH 6) were analyzed on a gel (FIG. 14).

Assay [3] addresses T2, BMP-12. Briefly: peptide resin, filter plate; load 4: 25 mM MES pH 6.0. How it is done:
as §1

Assay [4] deals with T2, BMP-12. In words: peptide resin, filter plate; load 10: 50 mM Tris, 0.1 M NaCl, 40% MPD, pH 8.0. The procedure:
as §1

The target of assay [5] is T2, BMP-12. Briefly: peptide resin, filter plate; load 6: 1M CHES pH 9.7. The procedure: as §1
The target in assay [6] is T2, BMP-12. Briefly: peptide resin, filter plate; load 3: 25 mM Na Acetate pH 5.0. The procedure:
as §1

For assay [7], the target named is T2, BMP-12. In words: peptide resin, filter plate; load 5: 25 mM HEPES pH 7.0. How it is done:
as §1

The target of assay [8] is T2, BMP-12. Briefly: peptide resin, filter plate; load 11: 50 mM Tris, 0.25 M NaCl, 30% MPD, pH 8.0. The procedure:
as §1

For assay [9], the target named is T2, BMP-12. Briefly: peptide resin, filter plate; load 2: 50 mM Acetic Acid, 0.1 M NaCl, pH 4.0. How it is done: as §1
Assay [10] addresses T2, BMP-12. Briefly: peptide resin, filter plate; load 1: 50 mM Acetic Acid, 0.1 M NaCl, pH 2.9. The procedure: as §1
Setting [11] is: loaded in condition 1: 50 mM Acetic Acid, 0.1 M NaCl, pH 2.9.
[12] abbreviates: loaded in condition 2: 50 mM Acetic Acid, 0.1 M NaCl, pH 4.0.
Where [13] appears, read: loaded in condition 3: 25 mM Na Acetate pH 5.0.
Where [14] appears, read: loaded in condition 4: 25 mM MES pH 6.0.
The mark [15] stands for this setting: loaded in condition 5: 25 mM HEPES pH 7.0.
[16] abbreviates: 50 mM acetic acid with 0.1 M NaCl at pH 3.0.

No end group written: not given here.

Turning to “Ac-ELGWDDWIIAPLDYEAYHSEGLK [Peptide 749]”, the “Yield (BMP-12 recovered from resin)” value was determined as 86% with BMP-12 [1] (setting [11]); 88% with BMP-12 [1] (setting [12]); 90% in the assay with BMP-12 [1] (setting [13]); 88% in the assay with BMP-12 [1] (setting [14]); 102% in the assay with BMP-12 [1] (setting [15]). In addition, in the assay with BMP-12 [1] (loading buffers 1-5), the “binding of BMP12 by resin coupled to peptide” value (from here on “binding of BMP12”) is “high affinity”.
For “Ac-LYV**SDVGWNDWIVK (Ac-LYVSDVGWNDWIVK; not fully specified (residue 3); printed as Ac-LYV**SDVGWNDWIVK) [Peptide 746]”, the “Yield (BMP-12 recovered from resin)” value came to 91% with BMP-12 [1] (setting [11]); 88% with BMP-12 [1] (setting [12]); 97% in the assay with BMP-12 [1] (setting [13]); 87% with BMP-12 [1] (setting [14]); 100% in the assay with BMP-12 [1] (setting [15]).
Turning to “Ac-LYVDFSDVGWNDWIVAPPGYHAFYSHGEK [Peptide 747]”, the “Yield (BMP-12 recovered from resin)” value was 81% with BMP-12 [1] (setting [11]); 68% with BMP-12 [1] (setting [12]); 90% in the assay with BMP-12 [1] (setting [13]); 88% with BMP-12 [1] (setting [14]); 90% with BMP-12 [1] (setting [15]). Further, the “binding of BMP12” value in the assay with BMP-12 [1] (loading buffers 1-5) is “high affinity”.
Take “Ac-RDLGWQDWIIAPEGYAAFYSDGEK [Peptide 748]”: the “Yield (BMP-12 recovered from resin)” value worked out at 85% with BMP-12 [1] (setting [11]); 84% with BMP-12 [1] (setting [12]); 89% with BMP-12 [1] (setting [13]); 87% with BMP-12 [1] (setting [14]); 87% in the assay with BMP-12 [1] (setting [15]). The “binding of BMP12” value with BMP-12 [1] (loading buffers 1-5) is on record as “high affinity”.
“Ac-SDVGWNDWIVAPPGYHAFYCHGEK [Peptide 750]”: the “binding of BMP12” value with BMP-12 [1] (25 mM MES at pH 6) was “strong”; in the assay with BMP-12 [1] (setting [16]) it was “weak”. The “Yield (BMP-12 recovered from resin)” value in the assay with BMP-12 [1] (setting [11]) is listed as 100%; in the assay with BMP-12 [1] (setting [12]) it was 93%; in the assay with BMP-12 [1] (setting [13]), 96%; with BMP-12 [1] (setting [14]) it was 85%; with BMP-12 [1] (setting [15]), 109%.
For the molecule “Ac-SDVGWNDWIVAPPGYHAFYSHGEK [Peptide 751]”, the “binding of BMP12” value was “strong” with BMP-12 [1] (25 mM MES at pH 6) and “weak” with BMP-12 [1] (setting [16]). Moreover, the “Yield (BMP-12 recovered from resin)” value in the assay with BMP-12 [1] (setting [11]) is recorded as 104%; in the assay with BMP-12 [1] (setting [12]) it was 97%; in the assay with BMP-12 [1] (setting [13]), 100%; with BMP-12 [1] (setting [14]), 92%; in the assay with BMP-12 [1] (setting [15]), 107%.
On to Ac-VAPPGYHAFYSHGEK [Peptide 745], for which the “Yield (BMP-12 recovered from resin)” value is on record as 100% in the assay with BMP-12 [1] (setting [11]); 103% with BMP-12 [1] (setting [12]); 105% with BMP-12 [1] (setting [13]); 116% in the assay with BMP-12 [1] (setting [14]); 103% with BMP-12 [1] (setting [15]).
Turning to Ac-LYVDFSDVGWNDWIVAPPGYHAFYSHGEK [BMP2 Full peptide 747], the “Flow-through K” value with BMP-12 [2] is 0; in the assay with BMP-12 [3] it was 38; with BMP-12 [4], 0; in the assay with BMP-12 [5] it was -1; in the assay with BMP-12 [6], 28; with BMP-12 [7], 11. Further, the entries for the “Flow-through K” value with BMP-12 [8], in the assay with BMP-12 [9] and with BMP-12 [10] were 0, 47 and 10, respectively. Also, the Flow-through conc with BMP-12 [2] stood at 0.438 mg/mL; in the assay with BMP-12 [3], 0.035 mg/mL; in the assay with BMP-12 [4] it was 0.482 mg/mL; with BMP-12 [5], 0.659 mg/mL; with BMP-12 [6], 0.046 mg/mL; with BMP-12 [7], 0.103 mg/mL. In addition, the Flow-through conc amounted to 0.45 mg/mL with BMP-12 [8], 0.029 mg/mL with BMP-12 [9] and 0.114 mg/mL with BMP-12 [10]. The “100 mM HAc elution K” value in the assay with BMP-12 [3] worked out at 1; with BMP-12 [6], 2; with BMP-12 [7], 1; with BMP-12 [9], 6; with BMP-12 [10], 6. For the same molecule, the “100 mM HAc elution conc” value is 0.324 mg/mL with BMP-12 [3]; 0.274 mg/mL in the assay with BMP-12 [6]; 0.255 mg/mL with BMP-12 [7]; 0.147 mg/mL in the assay with BMP-12 [9]; 0.123 mg/mL in the assay with BMP-12 [10]. The “4M Gnd, 50 mM NaAc pH 4 Strip Conc” value with BMP-12 [3] worked out at 0.065 mg/ml; in the assay with BMP-12 [6], 0.111 mg/ml; in the assay with BMP-12 [7] it was 0.074 mg/ml; with BMP-12 [9], 0.15 mg/ml; in the assay with BMP-12 [10] it was 0.15 mg/ml.
For Ac-RDLGWQDWIIAPEGYAAFYSDGEK [BMP5 peptide 748], the “Flow-through K” value is 1 in the assay with BMP-12 [2]; 62 with BMP-12 [3]; 1 in the assay with BMP-12 [4]; -1 in the assay with BMP-12 [5]; 57 in the assay with BMP-12 [6]; 23 with BMP-12 [7]. Moreover, the “Flow-through K” value with BMP-12 [8] worked out at 1; with BMP-12 [9], 59; with BMP-12 [10], 11. In addition, the Flow-through conc with BMP-12 [2] amounted to 0.383 mg/mL; with BMP-12 [3] it was 0.022 mg/mL; with BMP-12 [4], 0.407 mg/mL; with BMP-12 [5] it was 0.626 mg/mL; with BMP-12 [6] it was 0.024 mg/mL; in the assay with BMP-12 [7], 0.055 mg/mL. Also, the figures for the Flow-through conc with BMP-12 [8], with BMP-12 [9] and with BMP-12 [10] were 0.375 mg/mL, 0.023 mg/mL and 0.106 mg/mL, respectively. In addition, the “100 mM HAc elution K” value in the assay with BMP-12 [3] was 2; with BMP-12 [6], 2; in the assay with BMP-12 [7], 2; in the assay with BMP-12 [9], 6; in the assay with BMP-12 [10], 6. Also, the “100 mM HAc elution conc” value with BMP-12 [3] amounted to 0.304 mg/mL; with BMP-12 [6], 0.264 mg/mL; with BMP-12 [7] it was 0.257 mg/mL; in the assay with BMP-12 [9], 0.151 mg/mL; in the assay with BMP-12 [10], 0.123 mg/mL. Moreover, the “4M Gnd, 50 mM NaAc pH 4 Strip Conc” value was determined as 0.091 mg/ml with BMP-12 [3]; 0.14 mg/ml in the assay with BMP-12 [6]; 0.105 mg/ml with BMP-12 [7]; 0.229 mg/ml with BMP-12 [9]; 0.177 mg/ml in the assay with BMP-12 [10].
